Experimental findings from US20200157194A1 (Regeneron, published 2020) are described below.

The target of assay [1] is T1, human GREM1 (hGREM1-His; SEQ ID NO: 595) (human, UniProt O60565 25-184).
T1 construct: also called biotin-hGREM1-His; recombinant human GREM1 protein
T1 sequence: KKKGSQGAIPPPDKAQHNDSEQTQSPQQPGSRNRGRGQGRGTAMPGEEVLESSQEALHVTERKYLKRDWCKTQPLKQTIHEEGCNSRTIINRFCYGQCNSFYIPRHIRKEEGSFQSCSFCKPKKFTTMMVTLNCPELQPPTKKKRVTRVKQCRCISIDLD
The assay is described as follows: SPR, Biacore T200, 25 C, mAb captured, hGREM1-His injected. (Surface plasmon resonance follows binding to a sensor surface in real time, without labels.)

For assay [2], the target named is T2, recombinant human GREM1 (hGREM1-His; C-terminal 10His tagged, R&D, #5190-GR) (human, UniProt O60565 25-184).
T2 construct: range 25-184; also called recombinant human GREM1 with a C-terminal decahistidine tag
T2 sequence: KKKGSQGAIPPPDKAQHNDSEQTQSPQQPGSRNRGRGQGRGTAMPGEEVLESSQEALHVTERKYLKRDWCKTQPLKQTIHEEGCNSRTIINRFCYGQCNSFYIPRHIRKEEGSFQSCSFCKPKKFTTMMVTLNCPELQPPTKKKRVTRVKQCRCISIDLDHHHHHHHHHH
Kind of assay: BLI Octet, mAb captured, 100 nM GREM1. (In BLI a coated tip is dipped into the sample, and binding shifts an interference pattern.)

The target in assay [3] is T2, recombinant human GREM1 (hGREM1-His; …). The assay is described as follows: BLI Octet, mAb captured, 100 nM GREM1 without vs with 5 uM heparin.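 Also: octet Red96 biolayer interferometry at 25 °C, antibodies captured on anti-human IgG Fc biosensors, association of GREM1 measured with versus without heparin in HEPES-buffered saline, pH 7.4.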
For assay [4] the target is unchanged. The assay is described as follows: cell-based or functional assay.
The target in assay [5] is T1, human GREM1 (hGREM1-His; SEQ ID NO: 595). The assay is described as follows: SPR, Biacore T200, 37 C, mAb captured, hGREM1-His injected.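 Also: HBS-EP running buffer containing heparin, association and dissociation phases tracked, KD computed as koff over kon and half-life derived from koff.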
For assay [6], the target named is T2, recombinant human GREM1 (hGREM1-His; …). Kind of assay: BLI Octet, mAb captured, 100 nM GREM1 + 5 uM heparin.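 Also: octet Red96 biolayer interferometry at 25 °C, antibodies captured on anti-human IgG Fc biosensors, pH 7.4 HEPES buffer with 0.1 mg/mL BSA.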
Assay [7] has the same target. Kind of assay: cell-based or functional assay. The source holds these as a separate data set.
Assay [8] has as its target T1, human GREM1 (hGREM1-His; SEQ ID NO: 595). The assay is described as follows: competition ELISA, biotin-hGREM1-His (100 pM) binding to coated hBMP4. (In general: An ELISA detects its analyte on a solid surface through an enzyme-linked reagent.)

B1: H4H2892N (antibody, human IgG4, V domains shown)
VH: QVQLVESGGGVVQPGRSLRLSCAASGFTFSSYGIHWVRQAPGKGLEWVAILWYDGSNKYYADSVKGRFTISRDNSKTTLYLQMNSLRAEDTAVYYCARENYNDLNFDLWGRGTLVTVSS
VL: DIQLTQSPSFLSASVGDRVTITCWASQGISSYLAWYQHKPGKAPKLLIYAASTLQSGVPSRFSGSGSGIEFTLTISSLQPEDFATYYCQQLKSYPPWTFGQGTKVEIR
notes: H4H prefix = human IgG4 Fc
In assay [1], B1 gave an equilibrium dissociation constant (Kd) of 1.22 nM, a koff of 0.000173 s⁻¹, a kon of 142000 M⁻¹ s⁻¹ and a t1/2 of 67 min. Besides, in assay [2], the “Binding Signal with 30 sec Association” value was 0.2 nm and the “Binding Signal with 300 sec Association” value was found to be 0.49 nm. Further, in assay [3], the “Reduction in Signal from Heparin at 30 sec” value (from here on “Reduction … at 30 sec”) worked out at 0.05 nm and the “Reduction in Signal from Heparin at 300 sec” value (“Reduction … at 300 sec” below) is 0 nm. Also, the “hGREM1-His Inhibition IC50, M; W-20-17 cell differentiation assay (alkaline phosphatase)” value in assay [4] is 4.4 nM. In assay [5], this molecule showed a Kd of 2.35 nM, a koff of 0.0004 s⁻¹, a kon of 171000 M⁻¹ s⁻¹ and a t1/2 of 29 min. In assay [6], the “Binding Signal with 30 sec Association” value is 0.15 nm and the “Binding Signal with 300 sec Association” value turned out to be 0.49 nm. Besides, the “IC50 [M], inhibition of hGREM1-His, W-20-17/BRE-luc luciferase (100 pM hBMP4, 10 nM hGREM1-His)” value (“IC50 [M], inhibition of hGREM1-His” below) in assay [7] was 9.5e-10 M. Further, in assay [8], the “% blocked at maximum Ab tested (20 nM)” value came out at 82% and the IC50 came to 0.17 nM.

B2: H4H2895N (antibody, human IgG4, V domains shown)
VH: EVQLVESGGGLVQPGGSLRLSCAASGFTVSSNYMSWVRQAPGKGLEWVSVIYSGGNTYYADSVKGRFTISRHNSKNTLYLQMNSLRAEDTAVYYCARDLGIKSDYWGQGTLVTVSS
VL: EIVLTQSPDFQSVTPKEKVTITCRASQSIGTTLHWYQQKPDQSPKLLIKYVSQSLSGVPSRFSGSGSGTDFTLTINSLEAEDAATYYCHQSSSLPWTFGQGTKVEIK
notes: H4H prefix = human IgG4 Fc
Regarding B2, in assay [1], binding was put at a Kd of 0.778 nM, the koff came to 0.000132 s⁻¹, the kon turned out to be 170000 M⁻¹ s⁻¹ and the t1/2 stood at 88 min. In assay [2], the “Binding Signal with 30 sec Association” value is 0.15 nm and the “Binding Signal with 300 sec Association” value amounted to 0.5 nm. Further, in assay [3], the “Reduction … at 30 sec” value is -0.07 nm and the “Reduction … at 300 sec” value was -0.04 nm. Besides, in assay [4], the “hGREM1-His Inhibition IC50, M; W-20-17 cell differentiation assay (alkaline phosphatase)” value came to 1.9 nM. In assay [5], this molecule had a Kd of 1.23 nM, a koff of 0.000215 s⁻¹, a kon of 175000 M⁻¹ s⁻¹ and a t1/2 of 54 min. In addition, in assay [6], the “Binding Signal with 30 sec Association” value was 0.22 nm and the “Binding Signal with 300 sec Association” value turned out to be 0.54 nm. The “IC50 [M], inhibition of hGREM1-His” value in assay [7] was determined as 5.8e-10 M. In assay [8], the “% blocked at maximum Ab tested (20 nM)” value was 94% and the IC50 was found to be 0.036 nM.

B3: H4H2897N (antibody, human IgG4, V domains shown)
VH: QVQLVESGGGVVQPGRSLRLSCAASGFTFTNYGMHWVRQAPGKGLEWVAAISYDGTNKYYADSVKGRFTISRDDSKNTLCLQMNSLRAEDTAVYYCAKEGTGEGFSFDYWGQGTLVTVSS
VL: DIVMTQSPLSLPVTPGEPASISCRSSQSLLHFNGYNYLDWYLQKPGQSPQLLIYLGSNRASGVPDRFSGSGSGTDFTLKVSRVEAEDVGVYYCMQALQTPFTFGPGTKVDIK
notes: H4H prefix = human IgG4 Fc
In assay [1], B3 showed a Kd of 148 nM, a koff of 0.00041 s⁻¹, a kon of 2770 M⁻¹ s⁻¹ and a t1/2 of 28 min. For the same molecule, in assay [2], the “Binding Signal with 30 sec Association” value was 0.2 nm and the “Binding Signal with 300 sec Association” value turned out to be 0.68 nm. In assay [3], the “Reduction … at 30 sec” value was 0.19 nm and the “Reduction … at 300 sec” value was 0.42 nm. Also, in assay [4], the “hGREM1-His Inhibition IC50, M; W-20-17 cell differentiation assay (alkaline phosphatase)” value was found to be 18 nM. In assay [5], this molecule displayed a Kd of 28.8 nM, a koff of 0.00202 s⁻¹, a kon of 70300 M⁻¹ s⁻¹ and a t1/2 of 6 min. Moreover, in assay [6], the “Binding Signal with 30 sec Association” value stood at 0.01 nm and the “Binding Signal with 300 sec Association” value was 0.26 nm. Further, in assay [7], the “IC50 [M], inhibition of hGREM1-His” value turned out to be 4.5e-10 M. In assay [8], the “% blocked at maximum Ab tested (20 nM)” value was found to be 73% and the 50% inhibitory concentration (IC50) amounted to 0.042 nM.

What is called Kd is the concentration at which binding is half-saturated. Read a low Kd as a tighter complex. The koff is a measure of how fast the partners let go of each other. Low values mean a long-lived complex, high ones a short-lived complex. What is called kon is a measure of how fast the partners come together. Higher therefore signals faster complex formation. The IC50 is the concentration at which inhibition is half-maximal. Lower therefore signals greater potency.
